Sequences and labels used below:
T1: mouse NSP4 (mNSP4), form not stated in Example 6 (mouse, UniProt Q14B24 40-284, limits assumed)
T1 construct: also called recombinant mouse NSP4; purified mouse NSP4
T1 sequence (looked up): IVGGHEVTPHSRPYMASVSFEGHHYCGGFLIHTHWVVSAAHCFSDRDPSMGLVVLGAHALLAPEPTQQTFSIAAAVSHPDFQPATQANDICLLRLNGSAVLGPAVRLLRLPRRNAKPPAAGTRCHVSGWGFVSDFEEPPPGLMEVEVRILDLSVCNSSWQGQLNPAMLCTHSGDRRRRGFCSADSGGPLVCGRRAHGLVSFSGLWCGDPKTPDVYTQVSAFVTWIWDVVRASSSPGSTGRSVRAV

T2: mouse zymogen NSP4 (mZ-NSP4) (mouse, UniProt Q14B24 36-284)
T2 construct: Expressed in CHO cells; also called precursor form of mouse NSP4; not shown: N-terminal FLAG tag removable by enteropeptidase (cleavage after Asp-Asp-Asp-Asp-Lys)
T2 sequence (looked up): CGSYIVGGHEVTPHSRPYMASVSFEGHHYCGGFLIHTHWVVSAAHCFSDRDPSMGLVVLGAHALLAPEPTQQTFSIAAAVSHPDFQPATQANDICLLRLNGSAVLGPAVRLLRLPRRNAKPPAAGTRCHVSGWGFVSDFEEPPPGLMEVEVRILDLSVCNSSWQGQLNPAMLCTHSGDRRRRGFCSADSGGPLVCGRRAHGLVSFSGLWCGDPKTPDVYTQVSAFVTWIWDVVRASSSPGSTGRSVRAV

T3: mouse active NSP4 (mA-NSP4) (mouse, UniProt Q14B24 40-284)
T3 construct: mature; Made from mZ by enteropeptidase cleavage; also called mature form of mouse NSP4
T3 sequence (looked up): T1 sequence (looked up)

T4: mouse zymogen NSP4 (mZ-NSP4) (mouse), Q14B24
T4 chain: T2 sequence (looked up)

T5: human NSP4 (hNSP4), form not stated in Example 6 (human, UniProt Q6UWY2 34-283, limits assumed)
T5 sequence (looked up): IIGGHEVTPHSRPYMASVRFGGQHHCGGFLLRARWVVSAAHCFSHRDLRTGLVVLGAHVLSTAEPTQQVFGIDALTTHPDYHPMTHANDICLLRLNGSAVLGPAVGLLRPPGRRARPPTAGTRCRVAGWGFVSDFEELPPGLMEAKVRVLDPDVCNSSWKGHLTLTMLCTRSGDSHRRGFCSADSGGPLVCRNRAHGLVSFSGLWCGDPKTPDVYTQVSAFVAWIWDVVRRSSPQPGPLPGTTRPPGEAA

B1: affinity matured anti-NSP4 antibody clone 35.77 (Fab, V domains shown)
VH: EVQLVESGGGLVQPGGSLRLSCAASGFTFSGSGIHWVRQAPGKGLEWVAWISPTGGNTYYADSVKGRFTISADTSKNTAYLQMNSLRAEDTAVYYCAKRHLHNVAFDYWGQGTLVTVSS
VL: DIQMTQSPSSLSASVGDRVTITCRASQDVSTAVAWYQQKPGKAPKLLIYSASFLYSGVPSRFSGSGSGTDFTLTISSLQPEDFATYYCQQAYSAPPTFGQGTKVEIKR
B2: affinity matured anti-NSP4 antibody clone 35.14 (Fab, V domains shown)
VH: EVQLVESGGGLVQPGGSLRLSCAASGFTFSDNDISWVRQAPGKGLEWVGSISPDNGDTNYADSVKGRFTISADTSKNTAYLQMNSLRAEDTAVYYCARDDVPAVFTSAMDYWGQGTLVTVSS
VL: B1 VL with A91S, S93G, A94F, P96L
B3: affinity matured anti-NSP4 antibody clone 35.50 (Fab, V domains shown)
VH: B2 VH
VL: B1 VL with A91S, S93D, A94F, P96L
B4: affinity matured anti-NSP4 antibody clone 35.62 (Fab, V domains shown)
VH: B2 VH
VL: B1 VL with A91S, Y92A, S93G, A94F, P96L
B5: anti-NSP4 antibody 3-5 (antibody, V domains shown)
VH: B2 VH
VL: B1 VL with A91S, S93T, A94T
notes: also called Ab 3-5; Ab35
B6: affinity matured anti-NSP4 antibody clone 51.82 (Fab, V domains shown)
VH: B1 VH with K98R, R99G, H100L, L101F
VL: B1 VL with A91T, S93N
B7: anti-NSP4 antibody 5-1 (antibody, V domains shown)
VH: B1 VH with R99S, H100L, L101F
VL: B1 VL with A91S, S93T, A94T
notes: also called Ab 5-1; Ab5-1
B8: anti-NSP4 antibody 3-2 (antibody, V domains shown)
VH: EVQLVESGGGLVQPGGSLRLSCAASGFTFSDYSISWVRQAPGKGLEWVGEINPAGGATYYADSVKGRFTISADTSKNTAYLQMNSLRAEDTAVYYCARGDFPFWSDAYYVMDYWGQGTLVTVSS
VL: B1 VL with A91S, S93T, A94T
notes: also called Ab 3-2
B9: anti-NSP4 antibody 5-2 (antibody, human IgG1, V domains shown)
VH: EVQLVESGGGLVQPGGSLRLSCAASGFTFSNTYISWVRQAPGKGLEWVGFIYPANGATYYADSVKGRFTISADTSKNTAYLQMNSLRAEDTAVYYCARRYRLSFDYWGQGTLVTVSS
VL: B1 VL with A91S, S93T, A94T
notes: also called Ab 5-2
B10: anti-NSP4 antibody 5-4 (antibody, human IgG1, V domains shown)
VH: EVQLVESGGGLVQPGGSLRLSCAASGFTFTSYAISWVRQAPGKGLEWVAGISPSNGYTNYADSVKGRFTISADTSKNTAYLQMNSLRAEDTAVYYCARAGRWTHSDIDYWGQGTLVTVSS
VL: B1 VL with A91S, S93T, A94T
notes: also called Ab 5-4
B11: anti-NSP4 antibody 5-3 (antibody, human IgG1, V domains shown)
VH: EVQLVESGGGLVQPGGSLRLSCAASGFTFSGNDISWVRQAPGKGLEWVAGISPYGGSTYYADSVKGRFTISADTSKNTAYLQMNSLRAEDTAVYYCARRVSFYSRHAGMDYWGQGTLVTVSS
VL: B1 VL with A91S, S93T, A94T

The record followed here is patent publication US20180371107A1 (published 2018).

Substitutions are numbered along the chain they refer to.

One experiment concerns the target T1, mouse NSP4 (mNSP4), form not stated in …. Put plainly: ratio of phage IC50 against the parental clone 35.WT.
Conditions: not given
In the case of B1, the “Affinity improvement to mNSP4” value was determined as 2 fold.
Same read-out and setting: in the case of B2 it was 2.7 fold.
For B3, the “Affinity improvement to mNSP4” value came out at 1.7 fold.
As to B4, the “Affinity improvement to mNSP4” value stood at 0.6 fold.

For a further experiment the target is unchanged. Put plainly: phage competition binding assay (phage IC50), soluble mNSP4 competitor.
Conditions: not given
For orientation: IC50 means the midpoint of a concentration-inhibition curve. Lower therefore signals greater potency. B1 had an IC50 of 0.064 nM.
With B2, the IC50 was determined as 0.048 nM.
On the same count and under the same terms, in the case of B5 it was 0.131 nM; in that of B3, 0.075 nM; in that of B4, 0.206 nM.
Still for that read-out and setting: in the case of B6 it was 0.037 nM.
Turning to B7, the IC50 came to 18.7 nM.

Another experiment addresses T2, mouse zymogen NSP4 (mZ-NSP4). The experiment in a line: competition phage ELISA (phage IC50): phage clone preincubated with soluble mZ-NSP4, then on NSP4-coated wells.
Conditions: not given
Take B8: the IC50 came to 0.15 nM.
Still for that read-out and setting: in the case of B5 it was 0.18 nM.

The next experiment deals with T3, mouse active NSP4 (mA-NSP4). The experiment in a line: competition phage ELISA (phage IC50): phage clone preincubated with soluble mA-NSP4, then on NSP4-coated wells.
Conditions: not given
For B9, the 50% inhibitory concentration (IC50) came out at 25 nM.
On the same count and under the same terms, in the case of B10 it was 60.5 nM; in that of B11, 319 nM; in that of B7, 9.93 nM.

For the next experiment, the target named is T4, mouse zymogen NSP4 (mZ-NSP4) (mouse), …. Put plainly: BLI; no affinity. To be noted: chains VH:VL; remark: other sources report otherwise. Background: Biolayer interferometry detects binding as a change in optical thickness at a sensor tip.
The Kd is the free concentration of one partner at which half of the binding sites on the other are occupied at equilibrium, for simple one-to-one binding. Take B10: the Kd was above 1000 nM.
The same measure, in the same setting: in the case of B11 it was above 1000 nM; in that of B7, above 1000 nM.

A further experiment deals with T1, mouse NSP4 (mNSP4), form not stated in …. Put plainly: ratio of phage IC50 against the parental clone 51.WT.
Conditions: not given
As to B6, the “Affinity improvement to mNSP4” value was 505 fold.

The target in the next experiment is T5, human NSP4 (hNSP4), form not stated in …. The experiment in a line: phage competition binding assay (phage IC50), soluble hNSP4 competitor.
Conditions: not given
Take B2: the concentration for half-maximal inhibition (IC50) stood at 23.4 nM.
With B5, the IC50 worked out at 32.8 nM. This IC50 and that of the molecule before are within 1.5-fold of each other.
Same read-out and setting: in the case of B3 it was 22.8 nM; in that of B4, 25.7 nM.
